This experiment concerns the target SARS-CoV RBD (residues 306-527 of the spike protein) (SARS-CoV) (UniProt P59594).

This is an account of results in PMC7744049.

With CR3022 IgG (antibody), the pseudovirus neutralization assay (SARS-CoV spike on pseudovirus), IC50 came out at 5.2 µg/mL.
